Measured values as given in the nanobody polyreactivity screen of Harvey et al. (2022).

Test: yeast display, Sf9 membrane polyspecificity reagent, FACS + sequencing; frameworks hold sequencing errors
Outline: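 Genes from sorted yeast were amplified by colony PCR, read by MiSeq 2 × 250 sequencing and filtered on CDR length. These cells carried a synthetic nanobody library in Saccharomyces cerevisiae BJ5465 and were sorted by FACS into low and high (top ~1%) gates on anti-HA and streptavidin fluorescence. Polyreactivity is labelled according to the gate of origin.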

Row | Sequence | polyreactivity (PSR sort gate)
1 | QVQLVESGGGLVQAGGSLRLSCAASGSIFGKNAMGWYRQAPGKEREFVAAITNTGGDTYYADSVKGRFTISRDNAKNNVYLQMNSLKPEDTAVYYCNARKRKTSLYKFNYWGQGTQVTVSS | high polyreactivity
2 | QVQLVESGGGLVQAGGSLRLSCAASGSIFGKYAMGWYRQAPGKERELVAAISWSGGSTYYADSVKGRFTISRDNAKNTVYLQMNSLKPEDTAVYYCAATFRGTFRRIWTDTRAYDYWGQGTQVTVSS | high polyreactivity
3 | QVQLVESGGGLVQAGGSLRLSCAASGSIFGKYAMGWYRQAPGKERELVAAITGRGASTYYADSVKGRFTISRDNAKNTVYLQMNSLKPVDTAVYYCAARASWYYVYPYDYWGQGTQVTVSS | low polyreactivity
4 | QVQLVESGGGLVQAGGSLRLSCAASGSIFGLNAMGWYRPAHGKETELVAAISGGSTNYADSVKGRFTISRDNAKNTVYLQMNSLKTDDTAVYYCAARARRRYYYWGQGTQVTVSS | high polyreactivity
5 | QVQLVESGGGLVQAGGSLRLSCAASGSIFGLNAMGWYRPEPGQESALVAAISYSGGTTYYADSVKGRFTISRDNAKNSVYLQMNSLKPEDTAVYYCATRARYVGGYKYNYWGQGTQVTVSS | high polyreactivity
6 | QVQLVESGGGLVQAGGSLRLSCAASGSIFGLNAMGWYRQAPGKERELVAAISCGSTNYADSVKGRFTISRDNAKYTVYLQMNSLKPEDTAVYYCAARARRRYYYWGQGTQVTVSS | high polyreactivity
7 | QVQLVESGGGLVQAGGSLRLSCAASGSIFGLNAMGWYRQAPGKERELVARISTGSSTNYADSVKGRFTISRDHAKNSVYLQMNSLKPEDTAVYYCNADYPYYPYRENYWGQGTQVTVSS | low polyreactivity
8 | QVQLVESGGGLVQAGGSLRLSCAASGSIFGLYAMGWYRQAPGIERALVAAITTTGGSTYYADSVKGRFTISRDNAKNTVYLQMNSLKPEDTAVYYCNADYVAYGPEYDYWGQGTQVTVSS | low polyreactivity
9 | QVQLVESGGGLVQAGGSLRLSCAASGSIFGLYAMGWYRQAPGKERELVAAINQSGGSTSYADSVKGRFTISRDNAKNTVYLQMNSLKPEDTAVYYCAAKRSWGATRRAYGRYDYWGQGTQVTVSS | low polyreactivity
10 | QVQLVESGGGLVQAGGSLRLSCAASGSIFGLYAMGWYRQAPGKERELVAAINQSGGSTSYADSVKGRFTISRDNAKNTVYLQMNSLKPEDTAVYYCNRVRLNTEGFDYWGQGTQVTVSS | low polyreactivity
11 | QVQLVESGGGLVQAGGSLRLSCAASGSIFGNAMGWYRQAPGKERELVAAISRRGGRTYYADSVKGRFTISRDNAKNTVYLQMNSLKPEDTAVYYCNKYVTPWNEMDYWGQGTQVTVSS | high polyreactivity
12 | QVQLVESGGGLVQAGGSLRLSCAASGSIFGPYAMGWYRQAPGKERELVAAITIGGDNTYYADSVKGRFTISRDNAKNTVYLQMNSLKPEDTAVYYCAAKYYCGKPHYYEYYYWGQGTQVTVSS | low polyreactivity
13 | QVQLVESGGGLVQAGGSLRLSCAASGSIFGPYSMGWYRQAPGKERELVAAISWRGGTTRYADSVKGRFTISRDNAKNTVYLQMNSLKPEDTAVYYCNRTVYSKTQYDYDYWGQGTQVTVSS | high polyreactivity
14 | QVQLVESGGGLVQAGGSLRLSCAASGSIFGQNAMGWYRQAPGKERELVAAITSGAGITYYADSVKGRFTISRDNAKNTVYLQMNSLKPEDTAVYYCNAVPSWTPSPLFDYWGLGTQVTVSS | low polyreactivity
15 | QVQLVESGGGLVQAGGSLRLSCAASGSIFGRNTMGWYRQAPGKERELVAAISRSGGSTYYADSVKGRFTISRDNAKNTVYLQMNSLKPEDSAVYYCAARGKYDYSGVSFNYWGQGTQVTVSS | high polyreactivity
16 | QVQLVESGGGLVQAGGSLRLSCAASGSIFGRYAMGWYRQAPGKERELVAAISSSGGRTYYADSVKGRFTISRDNAKNTVYLQMNSLKPEDTAVYYCNAGTPYRGDYWGQGTQVTVSS | high polyreactivity
17 | QVQLVESGGGLVQAGGSLRLSCAASGSIFGRYAMGWYRQAPGKERELVASITRGAGSTYYADSVKGRFTISRDNAKNTVYLQMNSLKPEDTAVYYCRLAPRYRKGGYWGQGTQVTVSS | high polyreactivity
18 | QVQLVESGGGLVQAGGSLRLSCAASGSIFGRYGMVWSRPAPGKERELVAAITSATRTNYADSVKGRFTISRDNAKNTVYLQMNSLKPEDTAVYYCAKQTYRRLPQTPYNYWGQGSQVTVSS | low polyreactivity
19 | QVQLVESGGGLVQAGGSLRLSCAASGSIFGRYVMGWYRQAPGKERELVAAINRSGGRTYYADSVKGRFTISRDTAKNTVYLQMNSLKPEDTAVYYCATYTRSSASKEVPYDYWGQGTEVTVSS | high polyreactivity
20 | QVQLVESGGGLVQAGGSLRLSCAASGSIFGSNAMGWYRQAPGKERELVAAISYRGGSTYYADSVKGRFTISRDNAKNTVYLQMNSLKPEDTAFYYCAKVSSYKPYDYWGLGTQVTVSS | low polyreactivity
21 | QVQLVESGGGLVQAGGSLRLSCAASGSIFGSNAMGWYRQAPGKERELVAAITNTGRTNYADSVKGRFTISRDNAKNTVYLQMNSLKPEDTAVYYCNTDCYEFTHFVGGWYQIIDYDYWGQGSQVTVSS | low polyreactivity
22 | QVQLVESGGGLVQAGGSLRLSCAASGSIFGSNAMGWYRQSPGKERELVAAISRSGGSTYYADSVKGRFTISRDNAKNTVYLQMNSLKPEDTAVYYCAVVASRSHTETPEYDFWGQVTQVTVSS | low polyreactivity

Row | Sequence | polyreactivity (PSR sort gate)
23 | QVQLVESGGGLVQAGGSLRLSCAASGSIFGSNTMGWYRQAPGKERELVAAINSSGGSTYYADSVKGRFTISRDNAKNTVYLQMNSLKPEDTEVYYCNAASYRFFPYLYYYWGQGTQVTVSS | high polyreactivity
24 | QVQLVESGGGLVQAGGSLRLSCAASGSIFGSYAMGWYRQAPGKERELVAGITYRGSSTYYADSVKGRFTISRDNAKNTVYLQMNSLKPEDTAVYYCAADPVFDEYDYWGQGTQVTVSS | low polyreactivity
25 | QVQLVESGGGLVQAGGSLRLSCAASGSIFGSYAMGWYRQAPGKERELVASITRVDSTNYADSVKGRFTISRDNAKNTVYLQMNSLKPEDTAVYYCNAGSRTTAGGMDSWGQGTQVTVSS | low polyreactivity
26 | QVQLVESGGGLVQAGGSLRLSCAASGSIFGSYAMGWYRQAPGKERSTYYADSVKGRFTISRDNAKNTVYLQMNSLKPEDTAVYYCAADTYGYQGSAGGHWGQGTQVTVSS | low polyreactivity
27 | QVQLVESGGGLVQAGGSLRLSCAASGSIFGSYDMGWYRQAPGKERELVAAISEGGGSTYYADTVKGRFTISRDNAMNTVYLQMYSLKPEDTAVYYCAADLILSYYPYYQDYYWGQGTQVTVSS | low polyreactivity
28 | QVQLVESGGGLVQAGGSLRLSCAASGSIFGSYTMGWYRQAPGKERELVAAINASGGRTYYADSVKGRFTISRDNAKNTVYLQMNSLKPEDTAVYYCNKATYYQTYDYWGQGTQVTVSS | high polyreactivity
29 | QVQLVESGGGLVQAGGSLRLSCAASGSIFGSYTMGWYRQAPGKERELVAVINWSGDRTYYADSVKGRFTISRDNAKNNVYLHMNSLKPEDTAVYYCAARERAGYSGIRYNYWGQGSQVTVSS | low polyreactivity
30 | QVQLVESGGGLVQAGGSLRLSCAASGSIFGTNAMGCYRQAPGKERELVAAIDGGSTTYYADSVKGRFTISRDNAKNTVYLQMNSLKPEDTAVYYCAADGTRSLNYAGYAGYEYWGQGTQVTVSS | low polyreactivity
31 | QVQLVESGGGLVQAGGSLRLSCAASGSIFGTNAMGWYRQAPGKERELVAAIDGGSTTYYADSVKGRFTISRDNAKNTVYLQMNSLKPEDTAVYYCAADGTRYLNYEGYAGYEYWGQGTQVTVSS | low polyreactivity
32 | QVQLVESGGGLVQAGGSLRLSCAASGSIFGTNAMGWYRQAPGKERELVAAINWSGGTTYYADSVKGRFTISRDNAKNTVYLQMNSLKPEDTAVYYCATVFFVLPPTRFDSWGQGTQVTVSS | low polyreactivity
33 | QVQLVESGGGLVQAGGSLRLSCAASGSIFGTNAMGWYRQAPGKERELVATITSAGSTYYADSVKGRFTISRDNAKNTVYLQMNSLKPEDTAVYYCARQATGYVYREYDYWGQGTQVTVSS | low polyreactivity
34 | QVQLVESGGGLVQAGGSLRLSCAASGSIFGTNGMGWYRQAPGKERELVAAITRRGGSTYADSVKGRFTISRDNAKNTVYLQMNSLKPEDTAVYYCAVDQGYVVRLAWIYGYWGQGTQVTVSS | low polyreactivity
35 | QVQLVESGGGLVQAGGSLRLSCAASGSIFGTYAIGWDRQAPGKERELVAAISRGGRTYYADSVKGRFTISRDNAKNTVYLQMNSLKPEDTAVYYCAARTVGLRGYYYWGQGTQVTVSS | high polyreactivity
36 | QVQLVESGGGLVQAGGSLRLSCAASGSIFGTYAMGWYRQAPGKEREFVAAISWADGSTYYADSVKGRFTISRDNAKNTVYLQMNSLNPEDTAVFYCAVRRVGSIYIDRYIYVVADYDYWGQGTQVTVSS | low polyreactivity
37 | QVQLVESGGGLVQAGGSLRLSCAASGSIFGTYAMGWYRQAPGKEREFVAAISWSDGSTYYADSVKGRFTISRDNAKNTVYLQMNSLKPEDTAVYYCAAKSDPYRHDYWGQGTQVTVSS | low polyreactivity
38 | QVQLVESGGGLVQAGGSLRLSCAASGSIFGTYAMGWYRQAPGKERELVAAISWSDGSTYYADSVKGRFTISRDNAKNTVYLQMNSLKPEDTAVYYCAKVYRSIGPNVSRYGLSYYYWGQGSQVTVSS | low polyreactivity
39 | QVQLVESGGGLVQAGGSLRLSCAASGSIFGVNAMGWYRQAPGKERELVAAISNSGVRKYYADSVKGRFTISRDNAKNTVYLQMNSLKPEDTAVYYCARTYQVGDSIDDYWGQGTQVTVSP | low polyreactivity
40 | QVQLVESGGGLVQAGGSLRLSCAASGSIFGVYVMGWYRQAPGKERELVAAITRGASTNYADSVKGRFTISRDNAKNTVYLQMNSLKPEDTAVYYCAARQVSVSGHQYGYWGQGTQVTVSS | low polyreactivity
41 | QVQLVESGGGLVQAGGSLRLSCAASGSIFGWNAMGWYRQAPGKERELVAAISSGGSTYYADSVKGRFTISRDNAKNTVSLQMNSLKPEDTAVYYCNAYFQYYDYWGQGTQVTVSS | low polyreactivity
42 | QVQLVESGGGLVQAGGSLRLSCAASGSIFGWNAMGWYRQAPGKERELVASITWSGGRTYYADSVKGRFTISRDNAKNTVYLQMNSLKPEDTAVYYCAARGYTVWDDYWGQGTQVTVSS | high polyreactivity
43 | QVQLVESGGGLVQAGGSLRLSCAASGSIFGWNTMGWYRQAPGKERELVASISRRGGSTHYADSVKGRFTISRDNAKNTVYLQMNSLKPEDTAVYYCAKVRYQGNGGYYWGQGTQVTVSS | high polyreactivity
